We go through 1 molecule from patent US20210156867A1.

The test concerns the target mouse recombinant His-calmodulin, calcium-bound (mouse), P0DP26.

As for INLKALAALAKKIL (modifications not checked) [Mastoparan, P01514 1-14], the Kd turned out to be 1.2 nM.
